Laboratory results: the supplement of paper PMC5998384

Assays:
[1] = system: HeLa Kyoto; test: thermal stability score vs G1/S (z-score of summed log2 fold changes over temperatures); higher = more thermally stable than in G1/S
[2] = system: HeLa Kyoto; test: solubility change mitosis vs G1/S (difference of NP-40 vs SDS log2 ratios) (log2 ratio difference); higher = more soluble in mitosis
[3] = system: HeLa Kyoto; test: melting temperature (median over replicates), in situ; higher = more thermally stable
[4] = system: HeLa Kyoto; test: solubility in G1/S (NP-40 vs SDS abundance) (log2 ratio); higher = more soluble; conditions: cell cycle stage: G1/S
[5] = cell cycle stage: early G1 (4.5 h after nocodazole release)
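Throughout, for melting temperature (median over replicates), in situ: HeLa Kyoto cells synchronized by double thymidine or nocodazole block, proteins quantified by TMT10plex mass spectrometry, three independent biological replicates.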
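Throughout, for solubility change mitosis vs G1/S (difference of NP-40 vs SDS log2 ratios): synchronized HeLa Kyoto cells (double thymidine block for G1/S, nocodazole release for mitosis), protein amounts in NP-40 versus SDS lysates quantified by mass spectrometry, three biological replicates.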
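Throughout, for solubility in G1/S (NP-40 vs SDS abundance): HeLa Kyoto cells arrested at G1/S by double thymidine block, proteins quantified by TMT10plex mass spectrometry in mild NP-40 versus SDS extracts, three biological replicates.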
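Throughout, for thermal stability score vs G1/S (z-score of summed log2 fold changes over temperatures): synchronized HeLa Kyoto cells, proteins quantified by TMT10plex mass spectrometry, three biological replicates, mitosis taken 0.5 h after nocodazole release, G1/S directly after double thymidine block.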

Sequence	thermal stability score [1, 5]	thermal stability score ([1]; cell cycle stage: mitosis)	solubility change mitosis (log2) [2]	melting temperature ([3]; cell cycle stage: G1/S) [°C]	melting temperature ([3]; cell cycle stage: mitosis) [°C]	solubility in G1/S (log2) [4]
MGKKQKNKSEDSTKDDIDLDALAAEIEGAGAAKEQEPQKSKGKKKKEKKKQDFDEDDILKELEELSLEAQGIKADRETVAVKPTENNEEEFTSKDKKKKGQKGKKQSFDDNDSEELEDKDSKSKKTAKPKVEMYSGSDDDDDFNKLPKKAKGKAQKSNKKWDGSEEDEDNSKKIKERSRINSSGESGDESDEFLQSRKGQKKNQKNKPGPNIESGNEDDDASFKIKTVAQKKAEKKERERKKRDEEKAKLRKLKEKEELETGKKDQSKQKESQRKFEEETVKSKVTVDTGVIPASEEKAETPTAAEDDNEGDKKKKDKKKKKGEKEEKEKEKKKGPSKATVKAMQEALAKLKEEEERQKREEEERIKRLEELEAKRKEEERLEQEKRERKKQKEKERKERLKKEGKLLTKSQREARARAEATLKLLQAQGVEVPSKDSLPKKRPIYEDKKRKKIPQQLESKEVSESMELCAAVEVMEQGVPEKEETPPPVEPEEEEDTEDAGLDDWEAMASDEETEKVEGNKVHIEVKENPEEEEEEEEEEEEDEESEEEEEEEGESEGSEGDEEDEKVSDEKDSGKTLDKKPSKEMSSDSEYDSDDDRTKEERAYDKAKRRIEKRRLEHSKNVNTEKLRAPIICVLGHVDTGKTKILDKLRHTHVQDGEAGGITQQIGATNVPLEAINEQTKMIKNFDRENVRIPGMLIIDTPGHESFSNLRNRGSSLCDIAILVVDIMHGLEPQTIESINLLKSKKCPFIVALNKIDRLYDWKKSPDSDVAATLKKQKKNTKDEFEERAKAIIVEFAQQGLNAALFYENKDPRTFVSLVPTSAHTGDGMGSLIYLLVELTQTMLSKRLAHCEELRAQVMEVKALPGMGTTIDVILINGRLKEGDTIIVPGVEGPIVTQIRGLLLPPPMKELRVKNQYEKHKEVEAAQGVKILGKDLEKTLAGLPLLVAYKEDEIPVLKDELIHELKQTLNAIKLEEKGVYVQASTLGSLEALLEFLKTSEVPYAGINIGPVHKKDVMKASVMLEHDPQYAVILAFDVRIERDAQEMADSLGVRIFSAEIIYHLFDAFTKYRQDYKKQKQEEFKHIAVFPCKIKILPQYIFNSRDPIVMGVTVEAGQVKQGTPMCVPSKNFVDIGIVTSIEINHKQVDVAKKGQEVCVKIEPIPGESPKMFGRHFEATDILVSKISRQSIDALKDWFRDEMQKSDWQLIVELKKVFEII [EIF5B]	1.35	2.42	0.0872	51.5	51.6	-0.19
MGKKSRAVPGRRPILQLSPPGPRGSTPGRDPEPEPDTEPDSTAAVPSQPAPSAATTTTTAVTAAAASDDSPSEDEQEAVQEVPRVVQNPPKPVMTTRPTAVKATGGLCLLGAYADSDDDDNDVSEKLAQSKETNGNQSTDIDSTLANFLAEIDAITAPQPAAPVGASAPPPTPPRPEPKEAATSTLSSSTSNGTDSTQTSGWQYDTQCSLAGVGIEMGDWQEVWDENTGCYYYWNTQTNEVTWELPQYLATQVQGLQHYQPSSVPGAETSFVVNTDIYSKEKTISVSSSKSGPVIAKREVKKEVNEGIQALSNSEEEKKGVAASLLAPLLPEGIKEEEERWRRKVICKEEPVSEVKETSTTVEEATTIVKPQEIMLDNIEDPSQEDLCSVVQSGESEEEEEQDTLELELVLERKKAELRALEEGDGSVSGSSPRSDISQPASQDGMRRLMSKRGKWKMFVRATSPESTSRSSSKTGRDTPENGETAIGAENSEKIDENSDKEMEVEESPEKIKVQTTPKVEEEQDLKFQIGELANTLTSKFEFLGINRQSISNFHVLLLQTETRIADWREGALNGNYLKRKLQDAAEQLKQYEINATPKGWSCHWDRDHRRYFYVNEQSGESQWEFPDGEEEEEESQAQENRDETLAKQTLKDKTGTDSNSTESSETSTGSLCKESFSGQVSSSSLMPLTPFWTLLQSNVPVLQPPLPLEMPPPPPPPPESPPPPPPPPPPAEDGEIQEVEMEDEGSEEPPAPGTEEDTPLKPSAQTTVVTSQSSVDSTISSSSSTKGIKRKATEISTAVVQRSATIGSSPVLYSQSAIATGHQAAGIGNQATGIGHQTIPVSLPAAGMGHQARGMSLQSNYLGLAAAPAIMSYAECSVPIGVTAPSLQPVQARGAVPTATIIEPPPPPPPPPPPPPPAPKMPPPEKTKKGRKDKAKKSKTKMPSLVKKWQSIQRELDEEDNSSSSEEDRESTAQKRIEEWKQQQLVSGMAERNANFEALPEDWRARLKRRKMAPNT [FNBP4]	-4.32	-4.84	0.168	62.5	62.1	-0.323
MGKRDRADRDKKKSRKRHYEDEEDDEEDAPGNDPQEAVPSAAGKQVDESGTKVDEYGAKDYRLQMPLKDDHTSRPLWVAPDGHIFLEAFSPVYKYAQDFLVAIAEPVCRPTHVHEYKLTAYSLYAAVSVGLQTSDITEYLRKLSKTGVPDGIMQFIKLCTVSYGKVKLVLKHNRYFVESCHPDVIQHLLQDPVIRECRLRNSEGEATELITETFTSKSAISKTAESSGGPSTSRVTDPQGKSDIPMDLFDFYEQMDKDEEEEEETQTVSFEVKQEMIEELQKRCIHLEYPLLAEYDFRNDSVNPDINIDLKPTAVLRPYQEKSLRKMFGNGRARSGVIVLPCGAGKSLVGVTAACTVRKRCLVLGNSAVSVEQWKAQFKMWSTIDDSQICRFTSDAKDKPIGCSVAISTYSMLGHTTKRSWEAERVMEWLKTQEWGLMILDEVHTIPAKMFRRVLTIVQAHCKLGLTATLVREDDKIVDLNFLIGPKLYEANWMELQNNGYIAKVQCAEVWCPMSPEFYREYVAIKTKKRILLYTMNPNKFRACQFLIKFHERRNDKIIVFADNVFALKEYAIRLNKPYIYGPTSQGERMQILQNFKHNPKINTIFISKVGDTSFDLPEANVLIQISSHGGSRRQEAQRLGRVLRAKKGMVAEEYNAFFYSLVSQDTQEMAYSTKRQRFLVDQGYSFKVITKLAGMEEEDLAFSTKEEQQQLLQKVLAATDLDAEEEVVAGEFGSRSSQASRRFGTMSSMSGADDTVYMEYHSSRSKAPSKHVHPLFKRFRK [ERCC3]	0.89	1.14	-0.0174	47.9	49.6	-0.561
MGLAGVCALRRSAGYILVGGAGGQSAAAAARRYSEGEWASGGVRSFSRAAAAMAPIKVGDAIPAVEVFEGEPGNKVNLAELFKGKKGVLFGVPGAFTPGCSKTHLPGFVEQAEALKAKGVQVVACLSVNDAFVTGEWGRAHKAEGKVRLLADPTGAFGKETDLLLDDSLVSIFGNRRLKRFSMVVQDGIVKALNVEPDGTGLTCSLAPNIISQL [PRDX5]	-1.13	-2.67	0.124	55.9	55.9	0.582
MGLETEKADVQLFMDDDSYSHHSGLEYADPEKFADSDQDRDPHRLNSHLKLGFEDVIAEPVTTHSFDKVWICSHALFEISKYVMYKFLTVFLAIPLAFIAGILFATLSCLHIWILMPFVKTCLMVLPSVQTIWKSVTDVIIAPLCTSVGRCFSSVSLQLSQD [CAV2]	-1.45	-2.03	-0.0267	56.1	56.9	-0.178
MGLPEPGPLRLLALLLLLLLLLLLQLQHLAAAAADPLLGGQGPAKDCEKDQFQCRNERCIPSVWRCDEDDDCLDHSDEDDCPKKTCADSDFTCDNGHCIHERWKCDGEEECPDGSDESEATCTKQVCPAEKLSCGPTSHKCVPASWRCDGEKDCEGGADEAGCATLCAPHEFQCGNRSCLAAVFVCDGDDDCGDGSDERGCADPACGPREFRCGGDGGGACIPERWVCDRQFDCEDRSDEAAELCGRPGPGATSAPAACATASQFACRSGECVHLGWRCDGDRDCKDKSDEADCPLGTCRGDEFQCGDGTCVLAIKHCNQEQDCPDGSDEAGCLQGLNECLHNNGGCSHICTDLKIGFECTCPAGFQLLDQKTCGDIDECKDPDACSQICVNYKGYFKCECYPGYEMDLLTKNCKAAAGKSPSLIFTNRHEVRRIDLVKRNYSRLIPMLKNVVALDVEVATNRIYWCDLSYRKIYSAYMDKASDPKEQEVLIDEQLHSPEGLAVDWVHKHIYWTDSGNKTISVATVDGGRRRTLFSRNLSEPRAIAVDPLRGFMYWSDWGDQAKIEKSGLNGVDRQTLVSDNIEWPNGITLDLLSQRLYWVDSKLHQLSSIDFSGGNRKTLISSTDFLSHPFGIAVFEDKVFWTDLENEAIFSANRLNGLEISILAENLNNPHDIVIFHELKQPRAPDACELSVQPNGGCEYLCLPAPQISSHSPKYTCACPDTMWLGPDMKRCYRAPQSTSTTTLASTMTRTVPATTRAPGTTVHRSTYQNHSTETPSLTAAVPSSVSVPRAPSISPSTLSPATSNHSQHYANEDSKMGSTVTAAVIGIIVPIVVIALLCMSGYLIWRNWKRKNTKSMNFDNPVYRKTTEEEDEDELHIGRTAQIGHVYPAAISSFDRPLWAEPCLGETREPEDPAPALKELFVLPGEPRSQLHQLPKNPLSELPVVKSKRVALSLEDDGLP [LRP8]	-3.43	-3.53	-0.0602	55.6	56.7	0.0581
MGLTKQYLRYVASAVFGVIGSQKGNIVFVTLRGEKGRYVAVPACEHVFIWDLRKGEKILILQGLKQEVTCLCPSPDGLHLAVGYEDGSIRIFSLLSGEGNVTFNGHKAAITTLKYDQLGGRLASGSKDTDIIVWDVINESGLYRLKGHKDAITQALFLREKNLLVTSGKDTMVKWWDLDTQHCFKTMVGHRTEVWGLVLLSEEKRLITGASDSELRVWDIAYLQEIEDPEEPDPKKIKGSSPGIQDTLEAEDGAFETDEAPEDRILSCRKAGSIMREGRDRVVNLAVDKTGRILACHGTDSVLELFCILSKKEIQKKMDKKMKKARKKAKLHSSKGEEEDPEVNVEMSLQDEIQRVTNIKTSAKIKSFDLIHSPHGELKAVFLLQNNLVELYSLNPSLPTPQPVRTSRITIGGHRSDVRTLSFSSDNIAVLSAAADSIKIWNRSTLQCIRTMTCEYALCSFFVPGDRQVVIGTKTGKLQLYDLASGNLLETIDAHDGALWSMSLSPDQRGFVTGGADKSVKFWDFELVKDENSTQKRLSVKQTRTLQLDEDVLCVSYSPNQKLLAVSLLDCTVKIFYVDTLKFFLSLYGHKLPVICMDISHDGALIATGSADRNVKIWGLDFGDCHKSLFAHDDSVMYLQFVPKSHLFFTAGKDHKIKQWDADKFEHIQTLEGHHQEIWCLAVSPSGDYVVSSSHDKSLRLWERTREPLILEEEREMEREAEYEESVAKEDQPAVPGETQGDSYFTGKKTIETVKAAERIMEAIELYREETAKMKEHKAICKAAGKEVPLPSNPILMAYGSISPSAYVLEIFKGIKSSELEESLLVLPFSYVPDILKLFNEFIQLGSDVELICRCLFFLLRIHFGQITSNQMLVPVIEKLRETTISKVSQVRDVIGFNMAGLDYLKRECEAKSEVMFFADATSHLEEKKRKRKKREKLILTLT [WDR3]	2.25	3.44	0.614	50.2	50.9	-1.64
MGNSALRAHVETAQKTGVFQLKDRGLTEFPADLQKLTSNLRTIDLSNNKIESLPPLLIGKFTLLKSLSLNNNKLTVLPDEICNLKKLETLSLNNNHLRELPSTFGQLSALKTLSLSGNQLGALPPQLCSLRHLDVMDLSKNQIRSIPDSVGELQVIELNLNQNQISQISVKISCCPRLKILRLEENCLELSMLPQSILSDSQICLLAVEGNLFEIKKLRELEGYDKYMERFTATKKKFA [LRRC57]	-0.373	-0.56	0.00239	53.2	53.6	0.266
MGNVLAASSPPAGPPPPPAPALVGLPPPPPSPPGFTLPPLGGSLGAGTSTSRSSERTPGAATASASGAAEDGACGCLPNPGTFEECHRKCKELFPIQMEGVKLTVNKGLSNHFQVNHTVALSTIGESNYHFGVTYVGTKQLSPTEAFPVLVGDMDNSGSLNAQVIHQLGPGLRSKMAIQTQQSKFVNWQVDGEYRGSDFTAAVTLGNPDVLVGSGILVAHYLQSITPCLALGGELVYHRRPGEEGTVMSLAGKYTLNNWLATVTLGQAGMHATYYHKASDQLQVGVEFEASTRMQDTSVSFGYQLDLPKANLLFKGSVDSNWIVGATLEKKLPPLPLTLALGAFLNHRKNKFQCGFGLTIG [TOMM40]	-1.53	-3.48	-0.17	62.9	61.7	0.262
